Ends that are not written are not given here.
T1: TFPI C-terminal tail peptide
T1 construct: The limits are therefore uncertain; also called TFPI peptide
T1 peptide: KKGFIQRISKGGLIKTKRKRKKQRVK

B1: FV-810 (FV-DT), Factor V with amino acids 811-1491 deleted from the B-domain (other, human, UniProt P12259 29-838, looked up)
chain: AQLRQFYVAAQGISWSYRPEPTNSSLNLSVTSFKKIVYREYEPYFKKEKPQSTISGLLGPTLYAEVGDIIKVHFKNKADKPLSIHPQGIRYSKLSEGASYLDHTFPAEKMDDAVAPGREYTYEWSISEDSGPTHDDPPCLTHIYYSHENLIEDFNSGLIGPLLICKKGTLTEGGTQKTFDKQIVLLFAVFDESKSWSQSSSLMYTVNGYVNGTMPDITVCAHDHISWHLLGMSSGPELFSIHFNGQVLEQNHHKVSAITLVSATSTTANMTVGPEGKWIISSLTPKHLQAGMQAYIDIKNCPKKTRNLKKITREQRRHMKRWEYFIAAEEVIWDYAPVIPANMDKKYRSQHLDNFSNQIGKHYKKVMYTQYEDESFTKHTVNPNMKEDGILGPIIRAQVRDTLKIVFKNMASRPYSIYPHGVTFSPYEDEVNSSFTSGRNNTMIRAVQPGETYTYKWNILEFDEPTENDAQCLTRPYYSDVDIMRDIASGLIGLLLICKSRSLDRRGIQRAADIEQQAVFAVFDENKSWYLEDNINKFCENPDEVKRDDPKFYESNIMSTINGYVPESITTLGFCFDDTVQWHFCSVGTQNEILTIHFTGHSFIYGKRHEDTLTLFPMRGESVTVTMDNVGTWMLTSMNSSPRSKKLRLKFRDVKCIPDDDEDSYEIFEPPESTVMATRKMHDRLEPEDEESDADYDYQNRLAAALGIRSFRNSSLNQEEEEFNLTALALENGTEFVSSNTDIIVGSNYSSPSNISKFTVNNLAEPQKAPSHQQATTAGSPLRHLIGKNSVLNSSTAEHSSPYSEDPIEDTDYIEIIPKEEVQSSEDDYAEIDYVPYDDPYKTDVRTNINSSRDPDNIAAWYLRSNNGNRRNYYIAAEEISWDYSEFVQRETDIEDSDDIPEDTTYKKVVFRKYLDSTFTKRDPRGEYEEHLGILGPIIRAEVDDVIQVRFKNLASRPYSLHAHGLSYEKSSEGKTYEDDSPEWFKEDNAVQPNSSYTYVWHATERSGPESPGSACRAWAYYSAVNPEKDIHSGLIGPLLICQKGILHKDSNMPMDMREFVLLFMTFDEKKSWYYEKKSRSSWRLTSSEMKKSHEFHAINGMIYSLPGLKMYEQEWVRLHLLNIGGSQDIHVVHFHGQTLLENGNKQHQLGVWPLLPGSFKTLEMKASKPGWWLLNTEVGENQRAGMQTPFLIMDRDCRMPMGLSTGIISDSQIKASEFLGYWEPRLARLNNGGSYNAWSVEKLAAEFASKPWIQVDMQKEVIITGIQTQGAKHYLKSCYTTEFYVAYSSNQINWQIFKGNSTRNVMYFNGNSDASTIKENQFDPPIVARYIRISPTRAYNRPTLRLELQGCEVNGCSTPLGMENGKIENKQITASSFKKSWWGDYWEPFRARLNAQGRVNAWQAKANNNKQWLEIDLLKIKKITAIITQGCKSLSSEMYVKSYTIHYSEQGVEWKPYRLKSSMVDKIFEGNTNTKGHVKNFFNPPIISRFIRVIPKTWNQSIALRLELFGCDIY
notes: range 1-810;range 1492-2196; Single-chain cofactor-like variant; All residue numbers count on mature Factor V (add 28 for the precursor)
B2: Factor V basic region peptide (FVBR), amino acids 951-1008 of Factor V (peptide)
peptide: SRAWGESTPLANKPGKQSGHPKFPRVRHKSLQVRQDGGKSRLKKSQFLIKTRKKKKEK
notes: Expressed in E. coli as a SUMO fusion; also called FV basic peptide; BR peptide
B3: Oregon Green 488 maleimide-modified BR (OG488-BR) (peptide)
peptide: C(Oregon Green 488 maleimide)SRAWGESTPLANKPGKQSGHPKFPRVRHKSLQVRQDGGKSRLKKSQFLIKTRKKKKEK
notes: also called fluorescently labeled FVBR

How the values were obtained:
[1] = molecular target: B3; assay: fluorescence anisotropy; FV-810 titrated into 20 nM OG488-BR with 50 uM PCPS, 25 C
Description: (§1) Control experiments were performed by titrating FV-810 into buffer containing 10 mM EDTA (X) or by titrating rFVa (▴).
(§2) Steady-state fluorescence anisotropy was measured at 25° C. in a PTI Quanta-Master™ fluorescence spectrophotometer (Photon Technology International, Birmingham, N.J.) using excitation and emission wavelengths of 480 and 520 nm, respectively, with long-pass filters (KV500, CVI Melles Griot) in the emission beam.

[2] = molecular target: T2, Fluorescently-labeled, active site-blocked FXa (UniProt P00742 41-179; P00742 235-488, fluorescently-labeled, active site-blocked (label and blocker not named)); assay: fluorescence anisotropy; FVDT titrated into fluorescently labeled, active site-blocked FXa on PCPS liposomes, buffer only (no FVBR); concentration of labeled FXa not given
T2 construct: also called fluorescently labeled FXa
T2 sequence (P00742 41-179 limits assumed, chain 1 of 2): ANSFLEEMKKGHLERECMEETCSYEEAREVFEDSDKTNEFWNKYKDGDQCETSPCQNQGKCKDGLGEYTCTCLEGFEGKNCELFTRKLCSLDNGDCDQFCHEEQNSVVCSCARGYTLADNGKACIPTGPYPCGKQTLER
T2 sequence (P00742 235-488 limits assumed, chain 2 of 2): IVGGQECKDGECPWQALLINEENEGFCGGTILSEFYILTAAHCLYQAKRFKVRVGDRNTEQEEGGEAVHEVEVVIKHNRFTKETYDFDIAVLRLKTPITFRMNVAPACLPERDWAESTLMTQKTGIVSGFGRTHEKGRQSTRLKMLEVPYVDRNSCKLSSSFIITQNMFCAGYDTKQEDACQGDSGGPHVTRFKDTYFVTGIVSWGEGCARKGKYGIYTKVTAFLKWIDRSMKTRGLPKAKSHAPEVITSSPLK

[3] = molecular target: B3; assay: fluorescence anisotropy; buffer-pretreated FV-810 titrated into 30 nM OG488-BR with 50 uM PCPS
Description: (§3) FV-810, FV-810^R709Q (▴), FV-810^R1545Q (♦), and FV-810^QQ (▪) were pretreated with buffer (FIG. 14A) or thrombin (FIG. 14B).
as §2

[4] = molecular target: T1, TFPI C-terminal tail peptide; assay: fluorescence anisotropy; FVDT titrated into the TFPI peptide (label and probe concentration not stated)
[5] = molecular target: B3; assay: fluorescence anisotropy; FV-810 titrated into 40 nM OG488-BR with 50 uM PCPS, 25 C
Description: as §1, §2

[6] = molecular target: B3; assay: fluorescence anisotropy; FVDT titrated into fluorescently labeled FVBR (probe concentration not given)
[7] = molecular target: B1; assay: global fit of prethrombin-2 activation rates (1-50 nM FXa, 0-1000 nM BR, 5 nM FV-810, 50 uM PCPS) to a tight, competitive binding model
Description: (§4) Data were analyzed by nonlinear least squares regression analysis using the Marquardt algorithm (Bevington et al. (1992) Data Reduction and Error Analysis for the Physical Sciences, pp. 141-167, McGraw-Hill, New York), and the quality of each fit was assessed as described (Straume et al. (1992) Methods Enzymol., 210:87-105).

[8] = molecular target: B1; assay: fluorescence anisotropy displacement; unlabeled BR titrated into 30 nM OG488-BR, 20 nM FV-810, 50 uM PCPS
Description: as §1, §4

[9] = molecular target: B1; assay: fluorescence anisotropy, displacement; human BR titrated into 30 nM OG488-BR, 20 nM FV-810, 50 uM PCPS, 25 C; competitor: OG488-BR
[10] = molecular target: B1; assay: fluorescence anisotropy, displacement; FVBR titrated into labeled active site-blocked FXa plus FVDT on PCPS liposomes; displaced ligand: labeled FXa
[11] = molecular target: B1; assay: fluorescence anisotropy, displacement; unlabeled BR titrated into 30 nM OG488-BR, 20 nM FV-810, 50 uM PCPS; competitor: OG488-BR [inset]
Description: as §1

[12] = molecular target: B1; assay: fluorescence anisotropy displacement of OG488-BR; 30 nM OG488-BR, 20 nM FV-810, 50 uM PCPS; stoichiometry of 1 assumed
[13] = molecular target: T3, FV-810^R709Q (human, UniProt P12259 29-838; P12259 1520-2224); assay: fluorescence anisotropy; buffer-pretreated protein titrated into 30 nM OG488-BR, 50 uM PCPS; n=1 assumed
T3 construct: range 1-810;range 1492-2196; mature numbering
T3 sequence (P12259 other isoform, or with tags, fused parts or gaps R709Q R709Q): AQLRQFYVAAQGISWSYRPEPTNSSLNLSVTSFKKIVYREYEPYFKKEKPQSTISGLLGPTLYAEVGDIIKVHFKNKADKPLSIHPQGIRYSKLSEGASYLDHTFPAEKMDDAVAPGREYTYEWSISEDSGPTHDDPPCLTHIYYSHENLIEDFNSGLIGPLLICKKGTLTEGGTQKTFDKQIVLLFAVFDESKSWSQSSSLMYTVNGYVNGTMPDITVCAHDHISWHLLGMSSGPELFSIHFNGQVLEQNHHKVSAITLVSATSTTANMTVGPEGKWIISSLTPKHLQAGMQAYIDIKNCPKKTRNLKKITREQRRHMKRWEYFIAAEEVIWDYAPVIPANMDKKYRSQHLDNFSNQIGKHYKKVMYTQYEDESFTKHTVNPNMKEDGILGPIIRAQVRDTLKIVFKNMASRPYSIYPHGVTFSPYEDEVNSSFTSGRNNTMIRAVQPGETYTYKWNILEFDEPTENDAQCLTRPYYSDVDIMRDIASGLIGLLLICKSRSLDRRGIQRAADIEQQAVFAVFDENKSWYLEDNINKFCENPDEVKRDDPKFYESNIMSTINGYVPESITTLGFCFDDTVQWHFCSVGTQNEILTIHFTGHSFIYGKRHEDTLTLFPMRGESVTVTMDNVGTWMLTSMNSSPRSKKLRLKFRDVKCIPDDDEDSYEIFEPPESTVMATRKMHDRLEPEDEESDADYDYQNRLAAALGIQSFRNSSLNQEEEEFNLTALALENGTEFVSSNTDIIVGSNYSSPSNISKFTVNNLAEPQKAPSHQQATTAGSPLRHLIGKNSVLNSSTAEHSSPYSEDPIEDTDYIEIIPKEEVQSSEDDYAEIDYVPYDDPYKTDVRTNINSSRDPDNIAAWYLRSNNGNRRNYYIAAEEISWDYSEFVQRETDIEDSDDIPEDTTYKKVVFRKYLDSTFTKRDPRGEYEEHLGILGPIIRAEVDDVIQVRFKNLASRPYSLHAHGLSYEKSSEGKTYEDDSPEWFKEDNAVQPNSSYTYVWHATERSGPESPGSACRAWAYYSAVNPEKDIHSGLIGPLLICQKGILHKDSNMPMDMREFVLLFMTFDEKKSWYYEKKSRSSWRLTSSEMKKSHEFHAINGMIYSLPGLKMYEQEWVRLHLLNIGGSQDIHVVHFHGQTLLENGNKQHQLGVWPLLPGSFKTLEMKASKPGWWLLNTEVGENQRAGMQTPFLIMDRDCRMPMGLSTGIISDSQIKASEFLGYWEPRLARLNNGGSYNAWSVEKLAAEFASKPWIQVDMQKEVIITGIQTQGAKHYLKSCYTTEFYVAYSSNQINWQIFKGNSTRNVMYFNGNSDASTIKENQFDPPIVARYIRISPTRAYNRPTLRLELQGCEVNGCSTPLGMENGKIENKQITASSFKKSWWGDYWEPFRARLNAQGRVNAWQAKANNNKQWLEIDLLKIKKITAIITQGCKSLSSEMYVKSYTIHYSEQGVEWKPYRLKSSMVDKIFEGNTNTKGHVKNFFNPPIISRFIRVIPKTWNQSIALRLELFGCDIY
Description: as §3, §2

[14] = molecular target: B1; assay: as above
Description: as §3, §2

[15] = molecular target: T4, FV-810^R1545Q (human, UniProt P12259 29-838; P12259 1520-2224); assay: as above
T4 construct: range 1-810;range 1492-2196; mature numbering
T4 sequence (P12259 other isoform, or with tags, fused parts or gaps R1545Q R1545Q): as the sequence (P12259 other isoform, or with tags, fused parts or gaps R709Q R709Q) above, with Q709R, R864Q counted along it
Description: as §3, §2

[16] = molecular target: T5, FV-810^QQ (human, UniProt P12259 29-838; P12259 1520-2224); assay: as above
T5 construct: range 1-810;range 1492-2196; Both thrombin sites (Arg709 and Arg1545) changed to Gln; the assay field says where thrombin pretreatment was used
T5 sequence (P12259 other isoform, or with tags, fused parts or gaps): as the sequence (P12259 other isoform, or with tags, fused parts or gaps R709Q R709Q) above, with R864Q counted along it
Description: as §3, §2

[17] = molecular target: B1; assay: fluorescence anisotropy; FV-810 titrated into 20 or 40 nM OG488-BR, 50 uM PCPS, 25 C
Description: as §1, §2, §4

[18] = molecular target: T5, FV-810^QQ; assay: fluorescence anisotropy; thrombin-pretreated protein titrated into 30 nM OG488-BR, 50 uM PCPS; n=1 assumed
Description: as §3, §2

[19] = molecular target: T6, FV-810^R1545Q pretreated with thrombin (human, UniProt P12259 29-737; P12259 738-838; P12259 1520-2224); assay: as above
T6 construct: Cleaved only at Arg709: B-domain remnant stays tethered to the light chain; also called thrombin-cleaved FV-810^R1545Q
T6 sequence (P12259 other isoform, or with tags, fused parts or gaps R1545Q R1545Q, chain 2 of 2, one chain of several): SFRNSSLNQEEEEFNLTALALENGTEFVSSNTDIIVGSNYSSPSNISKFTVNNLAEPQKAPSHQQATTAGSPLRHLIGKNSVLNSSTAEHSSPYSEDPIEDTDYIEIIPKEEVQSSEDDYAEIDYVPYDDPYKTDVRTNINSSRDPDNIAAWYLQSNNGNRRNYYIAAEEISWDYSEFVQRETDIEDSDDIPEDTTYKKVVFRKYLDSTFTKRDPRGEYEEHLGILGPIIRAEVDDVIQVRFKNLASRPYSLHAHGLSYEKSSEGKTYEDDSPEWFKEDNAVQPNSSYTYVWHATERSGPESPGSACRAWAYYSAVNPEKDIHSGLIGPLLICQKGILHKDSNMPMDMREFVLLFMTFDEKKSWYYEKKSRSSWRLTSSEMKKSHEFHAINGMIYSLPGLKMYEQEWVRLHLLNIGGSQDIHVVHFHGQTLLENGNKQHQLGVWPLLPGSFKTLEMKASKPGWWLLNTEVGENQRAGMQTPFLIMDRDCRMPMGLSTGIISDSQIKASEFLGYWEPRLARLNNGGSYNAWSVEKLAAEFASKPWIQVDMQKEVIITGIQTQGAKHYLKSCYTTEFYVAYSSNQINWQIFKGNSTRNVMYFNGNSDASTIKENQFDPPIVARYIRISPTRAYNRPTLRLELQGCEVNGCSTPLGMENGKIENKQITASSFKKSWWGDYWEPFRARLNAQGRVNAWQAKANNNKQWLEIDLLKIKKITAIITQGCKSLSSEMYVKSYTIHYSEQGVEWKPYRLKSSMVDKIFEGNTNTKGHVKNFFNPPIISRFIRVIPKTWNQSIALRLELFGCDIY
Description: as §3, §2

Binder: B1
- EC50 (read off the curve) [1]: ~8 nM
- EC50 (read off the curve) [2]: 6 to 8 nM
- EC50 (read off the curve) [3]: 10 to 15 nM
- EC50 (read off the curve) [4]: ~10 nM
- EC50 (read off the curve) [5]: ~10 nM
- EC50 (read off the curve) [6]: 10 to 15 nM

Binder: B2
- Kd [7]: 34.2 nM
- Kd [8]: 2.1 nM
- IC50 (read off the curve) [9]: ~50 nM
- IC50 (read off the curve) [10]: ~90 nM
- IC50 (read off the curve) [11]: ~50 nM
- Kd [12]: 2.2 nM

Binder: B3
- Kd [13]: 7.1 nM
- Kd [14]: 2.1 nM
- Kd [15]: 2 nM
- Kd [16]: 0.31 nM
- Kd [17]: 2.07 nM
- Kd [18]: 1.3 nM
- Kd [19]: 30.3 nM

Reference: patent US20160222085A1 (CHILDREN S HOSPITAL OF PHILADELPHIA, published 2016)
